These results are taken from patent US20180085476.

This data set deals with T1, promolecule containing protonectin (portion A), PR linker (X2) and PAR-1 exosite recognition sequence (portion Z), Cy3 on an N-terminal lysine.
T1 sequence: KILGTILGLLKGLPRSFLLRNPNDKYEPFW

Consider thrombin, for which the “KM (Michaelis-Menten, digestion followed by reverse phase HPLC)” value was “KM 200 nM” and the “kcat/KM (Michaelis-Menten, digestion followed by reverse phase HPLC)” value is reported as “kcat/KM=8 µM^-1 sec^-1”.
